{"source": "FireProtDB (doi:10.1016/j.jmb.2004.10.057)", "conditions": "Mus musculus, pH 7.4, 20 °C, Tris-HCl 20 mM, whole UniProt chain shown", "note": "Values joined by “and” are separate entries in the source; they are usually repeats but may differ in a detail not shown here. Equal values may be shown once."}
{"protein": "Adenosine deaminase wild type, P03958 (protein) MAQTPAFNKPKVELHVHLDGAIKPETILYFGKKRGIALPADTVEELRNIIGMDKPLSLPGFLAKFDYYMPVIAGCREAIKRIAYEFVEMKAKEGVVYVEVRYSPHLLANSKVDPMPWNQTEGDVTPDDVVDLVNQGLQEGEQAFGIKVRSILCCMRHQPSWSLEVLELCKKYNQKTVVAMDLAGDETIEGSSLFPGHVEAYEGAVKNGIHRTVHAGEVGSPEVVREAVDILKTERVGHGYHTIEDEALYNRLLKENMHFEVCPWSSYLTGAWDPKTTHAVVRFKNDKANYSLNTDDPLIFKSTLDTDYQMTKKDMGFTEEEFKRLNINAAKSSFLPEEEKKELLERLYREYQ", "values": [{"measurement": "denaturant m value", "setting": "GdnHCl, Fluorescence", "value": 2.08, "unit": "kcal/mol/M"}, {"measurement": "denaturant midpoint (higher = more stable)", "setting": "GdnHCl, Fluorescence", "value": 1.91, "unit": "M"}, {"measurement": "unfolding free energy", "setting": "GdnHCl, Fluorescence", "value": 3.98, "unit": "kcal/mol"}, {"measurement": "unfolding free energy", "setting": "Urea, CD", "value": "5.78 kcal/mol and 7.39 kcal/mol"}, {"measurement": "denaturant midpoint (higher = more stable)", "setting": "Urea, Enzyme assay", "value": 0.68, "unit": "M"}, {"measurement": "denaturant m value", "setting": "Urea, Fluorescence", "value": 0.79, "unit": "kcal/mol/M"}, {"measurement": "denaturant midpoint (higher = more stable)", "setting": "Urea, Fluorescence", "value": 6.19, "unit": "M"}, {"measurement": "unfolding free energy", "setting": "Urea, Fluorescence", "value": 4.89, "unit": "kcal/mol"}]}
